Results: PMC13397619

B1: NLV2 TCR alpha chain (CDR3α only) (parent)
chain: AGPMKTSYDKVI
partner: MLVPMVATV

Variants of: B1
Test: T-Switch: Jurkat TCRβ−/− cells expressing a CDR3 saturation-mutagenesis library, stained with two peptide-HLA-A*02:01 tetramers (original and novel peptide) plus anti-CD3, FACS-sorted into four gates, gDNA sequenced
Conditions: with HLA-A*02:01 with peptide … (NLV 3-1, the novel peptide), tetramers 1 µg/mL, 30 min on ice, SP, DP and SW gates expanded about 10 days between rounds ('two to three rounds of selection' in the Methods), gate SW: higher = more of the variant in the gate that binds the novel peptide and not the original one = switched binding. Fold enrichment of the CDR3 variant in one FACS gate of a two-tetramer stain, unresolved parent, parent is a CDR3 fragment, scale: fold enrichment, numbering: sequential-on-construct, sequence starts at 1

Variant	enrichment
[…] (CDR3 as printed); A1W derived by comparing it with the table's wild-type CDR3 AGPMKTSYDKVI	0
[…] (CDR3 as printed); K10W derived by comparing it with the table's wild-type CDR3 AGPMKTSYDKVI	0
[…] (CDR3 as printed); A1S derived by comparing it with the table's wild-type CDR3 AGPMKTSYDKVI	0
[…] (CDR3 as printed); S7Q derived by comparing it with the table's wild-type CDR3 AGPMKTSYDKVI	0
[…] (CDR3 as printed); A1F derived by comparing it with the table's wild-type CDR3 AGPMKTSYDKVI	0
[…] (CDR3 as printed); A1N derived by comparing it with the table's wild-type CDR3 AGPMKTSYDKVI	0
[…] (CDR3 as printed); S7N derived by comparing it with the table's wild-type CDR3 AGPMKTSYDKVI	0
[…] (CDR3 as printed); T6G derived by comparing it with the table's wild-type CDR3 AGPMKTSYDKVI	0
[…] (CDR3 as printed); G2S derived by comparing it with the table's wild-type CDR3 AGPMKTSYDKVI	0
[…] (CDR3 as printed); K5M derived by comparing it with the table's wild-type CDR3 AGPMKTSYDKVI	0
[…] (CDR3 as printed); T6C derived by comparing it with the table's wild-type CDR3 AGPMKTSYDKVI	0
[…] (CDR3 as printed); S7G derived by comparing it with the table's wild-type CDR3 AGPMKTSYDKVI	0
[…] (CDR3 as printed); Y8Q derived by comparing it with the table's wild-type CDR3 AGPMKTSYDKVI	27.8
[…] (CDR3 as printed); P3G derived by comparing it with the table's wild-type CDR3 AGPMKTSYDKVI	0
[…] (CDR3 as printed); V11G derived by comparing it with the table's wild-type CDR3 AGPMKTSYDKVI	0
[…] (CDR3 as printed); K5L derived by comparing it with the table's wild-type CDR3 AGPMKTSYDKVI	0
[…] (CDR3 as printed); Y8P derived by comparing it with the table's wild-type CDR3 AGPMKTSYDKVI	0
[…] (CDR3 as printed); D9H derived by comparing it with the table's wild-type CDR3 AGPMKTSYDKVI	0
[…] (CDR3 as printed); D9P derived by comparing it with the table's wild-type CDR3 AGPMKTSYDKVI	0
[…] (CDR3 as printed); Y8H derived by comparing it with the table's wild-type CDR3 AGPMKTSYDKVI	0
[…] (CDR3 as printed); G2C derived by comparing it with the table's wild-type CDR3 AGPMKTSYDKVI	0
[…] (CDR3 as printed); V11P derived by comparing it with the table's wild-type CDR3 AGPMKTSYDKVI	0
[…] (CDR3 as printed); D9I derived by comparing it with the table's wild-type CDR3 AGPMKTSYDKVI	0

Variant	enrichment
[…] (CDR3 as printed); K10I derived by comparing it with the table's wild-type CDR3 AGPMKTSYDKVI	0
[…] (CDR3 as printed); K10L derived by comparing it with the table's wild-type CDR3 AGPMKTSYDKVI	0
[…] (CDR3 as printed); K5A derived by comparing it with the table's wild-type CDR3 AGPMKTSYDKVI	0
[…] (CDR3 as printed); P3M derived by comparing it with the table's wild-type CDR3 AGPMKTSYDKVI	0
[…] (CDR3 as printed); I12D derived by comparing it with the table's wild-type CDR3 AGPMKTSYDKVI	0
[…] (CDR3 as printed); M4N derived by comparing it with the table's wild-type CDR3 AGPMKTSYDKVI	0
[…] (CDR3 as printed); K5Y derived by comparing it with the table's wild-type CDR3 AGPMKTSYDKVI	0
[…] (CDR3 as printed); S7L derived by comparing it with the table's wild-type CDR3 AGPMKTSYDKVI	0
[…] (CDR3 as printed); A1K derived by comparing it with the table's wild-type CDR3 AGPMKTSYDKVI	1.01
[…] (CDR3 as printed); S7W derived by comparing it with the table's wild-type CDR3 AGPMKTSYDKVI	0
[…] (CDR3 as printed); K10N derived by comparing it with the table's wild-type CDR3 AGPMKTSYDKVI	0
[…] (CDR3 as printed); P3E derived by comparing it with the table's wild-type CDR3 AGPMKTSYDKVI	0
[…] (CDR3 as printed); I12K derived by comparing it with the table's wild-type CDR3 AGPMKTSYDKVI	0
[…] (CDR3 as printed); M4E derived by comparing it with the table's wild-type CDR3 AGPMKTSYDKVI	0
[…] (CDR3 as printed); A1M derived by comparing it with the table's wild-type CDR3 AGPMKTSYDKVI	0
[…] (CDR3 as printed); I12F derived by comparing it with the table's wild-type CDR3 AGPMKTSYDKVI	0
[…] (CDR3 as printed); M4V derived by comparing it with the table's wild-type CDR3 AGPMKTSYDKVI	0
[…] (CDR3 as printed); P3W derived by comparing it with the table's wild-type CDR3 AGPMKTSYDKVI	0
[…] (CDR3 as printed); D9V derived by comparing it with the table's wild-type CDR3 AGPMKTSYDKVI	0
[…] (CDR3 as printed); D9L derived by comparing it with the table's wild-type CDR3 AGPMKTSYDKVI	0
[…] (CDR3 as printed); K5H derived by comparing it with the table's wild-type CDR3 AGPMKTSYDKVI	0
[…] (CDR3 as printed); K5N derived by comparing it with the table's wild-type CDR3 AGPMKTSYDKVI	0
[…] (CDR3 as printed); T6N derived by comparing it with the table's wild-type CDR3 AGPMKTSYDKVI	0

Variant	enrichment
[…] (CDR3 as printed); M4R derived by comparing it with the table's wild-type CDR3 AGPMKTSYDKVI	0
[…] (CDR3 as printed); K5F derived by comparing it with the table's wild-type CDR3 AGPMKTSYDKVI	0
[…] (CDR3 as printed); T6L derived by comparing it with the table's wild-type CDR3 AGPMKTSYDKVI	0
[…] (CDR3 as printed); Y8A derived by comparing it with the table's wild-type CDR3 AGPMKTSYDKVI	77.9
[…] (CDR3 as printed); A1V derived by comparing it with the table's wild-type CDR3 AGPMKTSYDKVI	0
[…] (CDR3 as printed); M4I derived by comparing it with the table's wild-type CDR3 AGPMKTSYDKVI	0
[…] (CDR3 as printed); S7E derived by comparing it with the table's wild-type CDR3 AGPMKTSYDKVI	0
[…] (CDR3 as printed); K10G derived by comparing it with the table's wild-type CDR3 AGPMKTSYDKVI	0
[…] (CDR3 as printed); S7A derived by comparing it with the table's wild-type CDR3 AGPMKTSYDKVI	0
[…] (CDR3 as printed); K10Y derived by comparing it with the table's wild-type CDR3 AGPMKTSYDKVI	0
[…] (CDR3 as printed); S7C derived by comparing it with the table's wild-type CDR3 AGPMKTSYDKVI	0
[…] (CDR3 as printed); K10P derived by comparing it with the table's wild-type CDR3 AGPMKTSYDKVI	0
[…] (CDR3 as printed); P3V derived by comparing it with the table's wild-type CDR3 AGPMKTSYDKVI	0.657
[…] (CDR3 as printed); T6K derived by comparing it with the table's wild-type CDR3 AGPMKTSYDKVI	0.282
[…] (CDR3 as printed); V11A derived by comparing it with the table's wild-type CDR3 AGPMKTSYDKVI	0
[…] (CDR3 as printed); P3L derived by comparing it with the table's wild-type CDR3 AGPMKTSYDKVI	0
[…] (CDR3 as printed); K10M derived by comparing it with the table's wild-type CDR3 AGPMKTSYDKVI	0
[…] (CDR3 as printed); P3D derived by comparing it with the table's wild-type CDR3 AGPMKTSYDKVI	0
[…] (CDR3 as printed); Y8D derived by comparing it with the table's wild-type CDR3 AGPMKTSYDKVI	0.474
[…] (CDR3 as printed); M4D derived by comparing it with the table's wild-type CDR3 AGPMKTSYDKVI	0
[…] (CDR3 as printed); V11T derived by comparing it with the table's wild-type CDR3 AGPMKTSYDKVI	0
[…] (CDR3 as printed); I12L derived by comparing it with the table's wild-type CDR3 AGPMKTSYDKVI	0
